# Experimental data: PMC3597701 (Nucleic Acids Research, 2013)
# Target: origin recognition complex (ORC) (S. cerevisiae, UniProt P54784;P32833;P54790;P54791;P50874;P38826)
# Test: in vitro pre-RC assembly assay on origin DNA beads
row,binding result,Binder
1,binds,Cdc6 (natural protein) MSAIPITPTKRIRRNLFDDAPATPPRPLKRKKLQFTDVTPESSPEKLQFGSQSIFLRTKALLQKSSELVNLNSSDGALPARTAEYEQVMNFLAKAISEHRSDSLYITGPPGTGKTAQLDMIIRQKFQSLPLSLSTPRSKDVLRHTNPNLQNLSWFELPDGRLESVAVTSINCISLGEPSSIFQKIFDSFQDLNGPTLQIKNMQHLQKFLEPYHKKTTFVVVLDEMDRLLHANTSETQSVRTILELFLLAKLPTVSFVLIGMANSLDMKDRFLSRLNLDRGLLPQTIVFQPYTAEQMYEIVIQKMSSLPTIIFQPMAIKFAAKKCAGNTGDLRKLFDVLRGSIEIYELEKRFLLSPTRGSLNSAQVPLTPTTSPVKKSYPEPQGKIGLNYIAKVFSKFVNNNSTRTRIAKLNIQQKLILCTIIQSLKLNSDATIDESFDHYIKAITKTDTLAPLQRNEFLEICTILETCGLVSIKKTKCKGKTKRFVDKIDVDLDMREFYDEMTKISILKPFLH
2,binds,Cdc6 N263A (sensor-1 mutant) (natural protein) MSAIPITPTKRIRRNLFDDAPATPPRPLKRKKLQFTDVTPESSPEKLQFGSQSIFLRTKALLQKSSELVNLNSSDGALPARTAEYEQVMNFLAKAISEHRSDSLYITGPPGTGKTAQLDMIIRQKFQSLPLSLSTPRSKDVLRHTNPNLQNLSWFELPDGRLESVAVTSINCISLGEPSSIFQKIFDSFQDLNGPTLQIKNMQHLQKFLEPYHKKTTFVVVLDEMDRLLHANTSETQSVRTILELFLLAKLPTVSFVLIGMAASLDMKDRFLSRLNLDRGLLPQTIVFQPYTAEQMYEIVIQKMSSLPTIIFQPMAIKFAAKKCAGNTGDLRKLFDVLRGSIEIYELEKRFLLSPTRGSLNSAQVPLTPTTSPVKKSYPEPQGKIGLNYIAKVFSKFVNNNSTRTRIAKLNIQQKLILCTIIQSLKLNSDATIDESFDHYIKAITKTDTLAPLQRNEFLEICTILETCGLVSIKKTKCKGKTKRFVDKIDVDLDMREFYDEMTKISILKPFLH
3,binds,Cdt1 (natural protein) MSGTANSRRKEVLRVPVIDLNRVSDEEQLLPVVRAILLQHDTFLLKNYANKAVLDALLAGLTTKDLPDTSQGFDANFTGTLPLEDDVWLEQYIFDTDPQLRFDRKCRNESLCSIYSRLFKLGLFFAQLCVKSVVSSAELQDCISTSHYATKLTRYFNDNGSTHDGADAGATVLPTGDDFQYLFERDYVTFLPTGVLTIFPCAKAIRYKPSTMATTDNSWVSIDEPDCLLFHTGTLLARWSQGMHTTSPLQIDPRANIVSLTIWPPLTTPISSKGEGTIANHLLEQQIKAFPKVAQQYYPRELSILRLQDAMKFVKELFTVCETVLSLNALSRSTGVPPELHVLLPQISSMMKRKIVQDDILKLLTIWSDAYVVELNSRGELTMNLPKRDNLTTLTNKSRTLAFVERAESWYQQVIASKDEIMTDVPAFKINKRRSSSNSKTVLSSKVQTKSSNANALNNSRYLANSKENFMYKEKMPDSQANLMDRLRERERRSAALLSQRQKRYQQFLAMKMTQVFDILFSLTRGQPYTETYLSSLIVDSLQDSNNPIGTKEASEILAGLQGILPMDISVHQVDGGLKVYRWNSLDKNRFSKLLQIHKSKQQD
